Data taken from patent publication US20260210971A1 (Pfizer, published 2026).

Experiments:
[1] = molecular target: T1, recombinant soluble human TL1A (human, UniProt O95150 71-251); experiment: plate ELISA, TL1A coated, antibody titrated; plate of TNFSF6; plate of TNFSF6
T1 construct: Homotrimer, expressed in HEK293 and purified over HitrapNTA; no tag is described; Used biotinylated in the HTRF assay and in flow cytometry; also called rsTL1A; hTL1A
T1 sequence: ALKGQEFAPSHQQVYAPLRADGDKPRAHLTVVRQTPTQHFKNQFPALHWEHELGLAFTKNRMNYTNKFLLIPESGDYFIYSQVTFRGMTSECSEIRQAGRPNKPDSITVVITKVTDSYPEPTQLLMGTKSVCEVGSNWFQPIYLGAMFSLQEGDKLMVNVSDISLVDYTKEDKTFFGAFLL
Method: (§1) The first 6 rows of each plate were coated with the test article cytokine, and the last two rows were coated with TL1A as a positive control. Rows 1 and 2 were duplicate rows where the test article cytokine was tested for binding to increasing concentrations of its corresponding anti-cytokine positive control antibody. […] The experiment for each cytokine was repeated three times.
(§2) Plates were incubated overnight at 4° C. After washing the plates three times (3×) with 300 μL PBST using a plate washer (model ELx405; BioTek), plates were blocked by incubating for 1 hour at room temperature with 300 μL of blocking buffer (PBST+0.5% BSA) in each well. […] Plates were then washed 5 times with PBST using the plate washer.

[2] = molecular target: T1, recombinant soluble human TL1A; experiment: flow cytometry, inhibition of the binding of 10 µg/mL biotinylated TL1A to DR3-transfected HEK293 cells
[3] = molecular target: T1, recombinant soluble human TL1A; experiment: plate ELISA, TL1A coated, antibody titrated; plate of TNF β
Method: as §1, §2

[4] = molecular target: T1, recombinant soluble human TL1A; experiment: plate ELISA, TL1A coated, antibody titrated; plate of Lymβ 2
Method: as §1, §2

[5] = molecular target: T2, recombinant soluble rabbit TL1A (rabbit); experiment: SPR, IgG captured on anti-hIgG, TL1A injected
T2 construct: also called rabbit rsTL1A
T2 chain: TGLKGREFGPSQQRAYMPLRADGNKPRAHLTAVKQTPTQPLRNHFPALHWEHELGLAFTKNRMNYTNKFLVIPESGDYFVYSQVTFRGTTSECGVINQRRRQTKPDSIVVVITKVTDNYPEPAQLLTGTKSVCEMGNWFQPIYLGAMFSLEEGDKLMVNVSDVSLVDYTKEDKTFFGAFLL
From the text: (§3) The antibodies were captured via directly immobilized anti-human IgG (GE Healthcare) onto a carboxymethylated dextran sensor chip surface (CM5) using a Biacore T100 or T200 instrument. Anti-human IgG was immobilized through amine coupling to densities of approximately 4,000-13,000 response units (RU). […] At the end of each cycle, the entire anti-hIgG surface was regenerated by a 30-second pulse of 3M MgCl₂ followed by two consecutive 15-second pulses of PBS-NET. […] All injections were performed at 25° C. at a collection rate of 10 Hz. All sensorgrams were double referenced by using both a control surface and buffer injections. Rate constants were determined by fitting the data to a 1:1 model in Biacore T100, T200 evaluation software v1.0, or BIAevaluation software v4.1.1 and the equation KD=Kd/kₐ.
(§4) At the highest cytokine concentrations, the dissociation phase was sometimes extended to 60 minutes to achieve at least a 5% decrease in binding signal.

[6] = molecular target: T1, recombinant soluble human TL1A; experiment: cell-based or functional assay
[7] = molecular target: T3, endogenous TL1A of stimulated human peripheral blood (human, UniProt O95150 72-251, limits assumed); experiment: cell-based or functional assay
T3 sequence (looked up): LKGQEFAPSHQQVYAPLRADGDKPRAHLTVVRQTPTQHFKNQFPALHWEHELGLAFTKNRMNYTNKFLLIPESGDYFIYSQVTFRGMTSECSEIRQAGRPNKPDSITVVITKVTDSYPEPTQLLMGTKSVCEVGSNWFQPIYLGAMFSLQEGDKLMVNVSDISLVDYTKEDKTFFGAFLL

[8] = molecular target: T3, endogenous TL1A of stimulated human …; experiment: MSD ligand-binding assay of 1D1 1.31-free sTL1A in plasma of stimulated human blood
Method: After 24 hours of culture at 37° C., 100 μL of 5% bovine serum albumin in PBS were added and mixed well with the 200 μL of blood cultures to dilute plasma (dilution factor: 1.5). […] IFNγ was measured using the MSD human IFNγ kit (Catalog No. K151AEB-1) following the manufacturer's instructions. […] The following day, plates were washed three times with 150 μL per well of 0.1% Tween 20 in PBS, followed with 150 μL per well of blocking solution (5% bovine serum albumin in PBS), then the plates were incubated at room temperature for 1 hour with orbital shaking (1500 rpm). After the plates were washed as mentioned above, diluted plasma samples were added and incubated at 4° C. overnight. […] TL1A standard curves were generated using recombinant human soluble TL1A. Plates were read following the manufacturer's procedure, standard curve and plasma concentration of the cytokine were calculated with the MSD software.

[9] = molecular target: T1, recombinant soluble human TL1A; experiment: plate ELISA, TL1A coated, antibody titrated; plate of TNF α
Method: as §1, §2

[10] = molecular target: T1, recombinant soluble human TL1A; experiment: plate ELISA, TL1A coated, antibody titrated; plate of TNFSF14
Method: as §1, §2

[11] = molecular target: T1, recombinant soluble human TL1A; experiment: SPR, IgG captured on anti-hIgG, TL1A injected; off rate too slow to measure
[12] = molecular target: T4, human Lymphotoxin α2-β1 (human, UniProt P01374 35-205; Q06643 49-244, limits assumed); experiment: plate ELISA, cytokine coated
T4 construct: Copies read from the name α2-β1; also called Lymβ 1
T4 sequence (looked up) 1: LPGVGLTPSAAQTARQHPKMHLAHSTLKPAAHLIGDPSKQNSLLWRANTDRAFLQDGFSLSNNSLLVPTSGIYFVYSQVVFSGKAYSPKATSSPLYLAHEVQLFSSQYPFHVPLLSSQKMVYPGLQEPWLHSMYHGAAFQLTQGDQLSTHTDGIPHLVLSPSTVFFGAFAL
T4 sequence (looked up) 2: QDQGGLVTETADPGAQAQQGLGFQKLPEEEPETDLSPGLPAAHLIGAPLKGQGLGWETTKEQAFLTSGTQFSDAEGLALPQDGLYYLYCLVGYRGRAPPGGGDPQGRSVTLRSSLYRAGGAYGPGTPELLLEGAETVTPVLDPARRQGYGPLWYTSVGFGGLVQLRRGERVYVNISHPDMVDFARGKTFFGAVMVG
Method: as §1, §2

[13] = molecular target: human TNFSF10 (TRAIL) (human, UniProt P50591 114-281); experiment: plate ELISA, cytokine coated
Method: as §1, §2

[14] = molecular target: human TNFSF14 (LIGHT) (human, UniProt O43557 74-240, limits assumed); experiment: plate ELISA, cytokine coated
Method: as §1, §2

[15] = molecular target: T5, human Lymphotoxin α1-β2 (human, UniProt P01374 35-205; Q06643 49-244, limits assumed); experiment: plate ELISA, cytokine coated
T5 construct: Copies read from the name α1-β2; also called Lymβ 2
T5 sequence (looked up) 1: T4 sequence (looked up) 1
T5 sequence (looked up) 2: T4 sequence (looked up) 2
Method: as §1, §2

[16] = molecular target: T6, human TNF-α (human, UniProt P01375 77-233); experiment: plate ELISA, cytokine coated
T6 construct: also called TNF alpha
Method: as §1, §2

[17] = molecular target: T7, human TNF-β (human, UniProt P01374 35-205); experiment: plate ELISA, cytokine coated
T7 construct: The source sentence prints 'Human TNF-from Peprotech'
T7 sequence (looked up): T4 sequence (looked up) 1
Method: as §1, §2

[18] = molecular target: T8, recombinant soluble cynomolgus monkey TL1A (cynomolgus monkey, UniProt O95150 72-251 (human entry)); experiment: SPR, IgG captured on anti-hIgG, TL1A injected;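 further: biacore surface plasmon resonance on a dextran sensor chip, double-referenced sensorgrams fitted to a one-to-one binding model, KD taken as dissociation over association rate constant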
T8 construct: also called cyno rsTL1A; cyno TL1A
T8 chain: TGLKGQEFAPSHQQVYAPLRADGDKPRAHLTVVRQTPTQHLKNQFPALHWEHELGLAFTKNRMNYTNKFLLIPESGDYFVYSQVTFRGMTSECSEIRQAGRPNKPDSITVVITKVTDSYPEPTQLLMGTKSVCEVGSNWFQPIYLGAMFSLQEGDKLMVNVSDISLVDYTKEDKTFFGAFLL
From the text: as §3, §4

human TNFSF10 (TRAIL), sequence (P50591 114-281 limits assumed): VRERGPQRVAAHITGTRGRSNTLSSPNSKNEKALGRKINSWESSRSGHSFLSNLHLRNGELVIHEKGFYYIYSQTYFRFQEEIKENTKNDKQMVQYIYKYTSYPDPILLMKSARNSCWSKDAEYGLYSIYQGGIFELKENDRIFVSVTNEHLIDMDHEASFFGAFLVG
T6 sequence (P01375 77-233 limits assumed): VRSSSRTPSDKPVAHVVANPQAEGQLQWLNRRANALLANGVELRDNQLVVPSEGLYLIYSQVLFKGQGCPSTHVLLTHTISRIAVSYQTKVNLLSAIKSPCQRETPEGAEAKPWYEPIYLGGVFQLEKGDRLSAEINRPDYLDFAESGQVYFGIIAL
human TNFSF14 (LIGHT), sequence (O43557 74-240 limits assumed): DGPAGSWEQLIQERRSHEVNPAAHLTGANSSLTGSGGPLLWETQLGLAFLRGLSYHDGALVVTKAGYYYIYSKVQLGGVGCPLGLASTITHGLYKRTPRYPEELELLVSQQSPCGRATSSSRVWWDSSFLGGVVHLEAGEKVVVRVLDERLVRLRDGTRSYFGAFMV

B1: 1D1 1.31 (antibody, human IgG1, kappa, V domains shown)
VH: QVQLVQSGAEVKKPGASVKVSCKASGYDFTYYGISWVRQAPGQGLEWMGWISTYNGNTHYARMLQGRVTMTTDTSTRTAYMELRSLRSDDTAVYYCARENYYGSGAYRGGMDVWGQGTTVTVSS
VL: EIVLTQSPATLSLSPGERATLSCRASQSVSSYLAWYQQKPGQAPRLLIYDASNRATGIPARFSGSGSGTDFTLTISSLEPEDFAVYYCQQRSNWPWTFGQGTKVEIKR
notes: Full length human IgG1 with effector function-null mutations in the Fc, produced in CHO cells; Used biotinylated for staining of monocytes
EC50 [1]: 0.0085 ng/mL
IC50 [2]: 18700 ng/mL
EC50 [3]: 0.0023 ng/mL
EC50 [4]: 0.0058 ng/mL
Kd [5]: 0.361 nM
koff [5]: 0.00011 s⁻¹
kon [5]: 320000 M⁻¹ s⁻¹
t1/2 [5]: 1.69 h
Caspase Assay, average IC50 [6]: 0.106 nM
NFkB Assay, average IC50 [6]: 0.15 nM
HWB Assay, average IC50 [7]: 0.00167 nM
IC50 [8]: 0.00106 nM
EC50 [9]: 0.0082 ng/mL
EC50 [10]: 0.0084 ng/mL
Kd [11]: < 0.1 nM
binding result [12]: no binding (tested: 25 µg/mL highest antibody concentration)
binding result [13]: no binding (tested: 25 µg/mL highest antibody concentration)
binding result [14]: no binding (tested: 25 µg/mL highest antibody concentration)
binding result [15]: no binding (tested: 25 µg/mL highest antibody concentration)
binding result [16]: no binding (tested: 25 µg/mL highest antibody concentration)
binding result [17]: no binding (tested: 25 µg/mL highest antibody concentration)
Kd [18]: 0.081 nM
koff [18]: 3.6e-05 s⁻¹
kon [18]: 450000 M⁻¹ s⁻¹
t1/2 [18]: 5.34 h
